Measured values: the supplement of paper PMC10201428
± gives the standard deviation of the averaged measurements.

Key:
[1] = test system: VchCAST RNA-guided transposition machinery (E. coli BL21(DE3) host, lacZ target); test: relative integration efficiency (T-RL orientation) vs wild-type transposon end (log2 (normalized fold change)); transposon end mutated: right end (5 bp flank + 75 bp right end); higher = more efficient transposition
Summary of the method: (§1)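 A T7-driven effector plasmid encoding a CRISPR array, tniQ-cas8-cas7-cas6 and tnsA-tnsB-tnsC was co-transformed into E. coli BL21(DE3) together with a pUC57 mini-transposon donor holding barcoded pools of 1549 left-end or 1849 right-end variants. Transformants were plated with 0.1 mM IPTG at 37°C for 18 h. Illumina sequencing of PCR-amplified input plasmids and genomic integration junctions gave barcode abundances, and relative integration efficiency is their output/input fold change, normalised to reference barcodes and log-transformed.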

[2] = test system: VchCAST RNA-guided transposition machinery (E. coli BL21(DE3) host, lacZ target); test: relative integration efficiency (T-LR orientation) vs wild-type transposon end (log2 (normalized fold change)); transposon end mutated: right end (5 bp flank + 75 bp right end); higher = more efficient transposition
Summary of the method: as §1

Sequence	relative integration efficiency (log2) [1]	relative integration efficiency (log2) [2]
ACATTTGTTGATACACCCATAAATTGATATTGCCACCCATAAATTGATAATTATCACACCCATAAATTGATATTGCCTCTGATCATAGTCAGACCAACATTGCTACGACCCGTATTCGCACCGACAC	-0.842 ± 0.076	-0.216 ± 0.095
ACATTTGTTGATACACCCATAAATTGATATTGCCACCCATAAATTGATAATTATCAGTGGGTATTTAACTATAACGCTCTGATCATAGTCAGACCAACATTGCTACGACCCGTATTCGCACCGACAC	-1.42 ± 0.14	2.03 ± 0.071
ACATTTGTTGATACACCCATAAATTGATATTGCCACCCATAAATTGATATTGCTCACAACCATAAAATGATAATTACTCTGATCATAGTCAGACCAACATTGCTACGACCCGTATTCGCACCGACAC	-0.874 ± 0.16	-0.156 ± 0.22
ACATTTGTTGATACACCCATAAATTGATATTGCCACCCATAAATTGATATTGCTCACAACCATAAAGTGATATTTACTCTGATCATAGTCAGACCAACATTGCTACGACCCGTATTCGCACCGACAC	-0.811 ± 0.21	0.0649 ± 0.043
ACATTTGTTGATACACCCATAAATTGATATTGCCACCCATAAATTGATATTGCTCACAACCATAAGTTGATATTTTCTCTGATCATAGTCAGACCAACATTGCTACGACCCGTATTCGCACCGACAC	-1.05 ± 0.16	-0.179 ± 0.051
ACATTTGTTGATACACCCATAAATTGATATTGCCACCCATAAATTGATATTGCTCACAACCATATATTGATATCTCCTCTGATCATAGTCAGACCAACATTGCTACGACCCGTATTCGCACCGACAC	-1.05 ± 0.22	0.239 ± 0.14
ACATTTGTTGATACACCCATAAATTGATATTGCCACCCATAAATTGATATTGCTCACACCCATAAATTGATAATTACTCTGATCATAGTCAGACCAACATTGCTACGACCCGTATTCGCACCGACAC	-1.21 ± 0.15	0.226 ± 0.19
ACATTTGTTGATACACCCATAAATTGATATTGCCACCCATAAATTGATATTGCTCACACCCATAAATTGATATTGCCTCTGATCATAGTCAGACCAACATTGCTACGACCCGTATTCGCACCGACAC	-0.939 ± 0.095	0.0807 ± 0.15
ACATTTGTTGATACACCCATAAATTGATATTGCCACCCATAAATTGATATTGCTCAGTGGGTATTTAACTATAACGCTCTGATCATAGTCAGACCAACATTGCTACGACCCGTATTCGCACCGACAC	-1.66 ± 0.34	2.19 ± 0.12
ACATTTGTTGATACATCCATAAAATGATAATTACAGCCATAAATTGATAATTATCACAGCCATAAATTGATATTGCCTCTGATCATAGTCAGACCAACATTGCTACGACCCGTATTCGCACCGACAC	-0.851 ± 0.072	-0.607 ± 0.2
ACATTTGTTGATACATGCATAAAATGATAATTACACCCATAAATTGATAATTATCACACCCATAAATTGATATTGCCTCTGATCATAGTCAGACCAACATTGCTACGACCCGTATTCGCACCGACAC	-0.321 ± 0.046	-0.66 ± 0.08
ACATTTGTTGATACATGGTTAAAATGATAATTACACCCATAAATTGATAATTATCACACCCATAAATTGATATTGCCTCTGATCATAGTCAGACCAACATTGCTACGACCCGTATTCGCACCGACAC	-1.62 ± 0.088	-2.05 ± 0.37
ACATTTGTTGATACCACCATAAAATGATAATTACACCCATACATTGATAATTATCACACCCAATTTAACTATAACGCTCTGATCATAGTCAGACCAACATTGCTACGACCCGTATTCGCACCGACAC	-2.1 ± 0.38	0.947 ± 0.23
ACATTTGTTGATACCACCATAAAATGATAATTACACCCCTAAATTGATAATTATCACACCCAATTTAACTATAACGCTCTGATCATAGTCAGACCAACATTGCTACGACCCGTATTCGCACCGACAC	-2.41 ± 0.33	0.973 ± 0.2
ACATTTGTTGATACCACCATAAAATGATAATTACACCCCTACATTGATAATTATCACACCCAATTTAACTATAACGCTCTGATCATAGTCAGACCAACATTGCTACGACCCGTATTCGCACCGACAC	-3.75 ± 0.28	-0.284 ± 0.22
ACATTTGTTGATACCACCATAAAATGATAATTACCCCCATAAATTGATAATTATCACCCCCATAAATTGATATTGCCTCTGATCATAGTCAGACCAACATTGCTACGACCCGTATTCGCACCGACAC	0.364 ± 0.15	1.35 ± 0.29
ACATTTGTTGATACCACCATAAAATGATAATTCCACCCATAAATTGATAATTATCACACCCAATTTAACTATAACGCTCTGATCATAGTCAGACCAACATTGCTACGACCCGTATTCGCACCGACAC	-1.1 ± 0.17	2.52 ± 0.15
ACATTTGTTGATACCACCATAAAATGATAATTCCACCCATACATTGATAATTATCACACCCAATTTAACTATAACGCTCTGATCATAGTCAGACCAACATTGCTACGACCCGTATTCGCACCGACAC	-2.81 ± 0.42	0.789 ± 0.33

Sequence	relative integration efficiency (log2) [1]	relative integration efficiency (log2) [2]
ACATTTGTTGATACCACCATAAAATGATAATTCCACCCCTAAATTGATAATTATCACACCCAATTTAACTATAACGCTCTGATCATAGTCAGACCAACATTGCTACGACCCGTATTCGCACCGACAC	-2.92 ± 0.31	0.417 ± 0.16
ACATTTGTTGATACCACCATAAAATGATAATTCCACCCCTACATTGATAATTATCACACCCAATTTAACTATAACGCTCTGATCATAGTCAGACCAACATTGCTACGACCCGTATTCGCACCGACAC	-3.78 ± 0.24	-0.121 ± 0.44
ACATTTGTTGATACCACCATAAAATGGTAATTACACCCATAAATTGATAATTATCACACCCAATTTAACTATAACGCTCTGATCATAGTCAGACCAACATTGCTACGACCCGTATTCGCACCGACAC	-1.38 ± 0.13	2.15 ± 0.17
ACATTTGTTGATACCACCATAAAATGGTAATTACACCCATACATTGATAATTATCACACCCAATTTAACTATAACGCTCTGATCATAGTCAGACCAACATTGCTACGACCCGTATTCGCACCGACAC	-2.87 ± 0.24	0.455 ± 0.2
ACATTTGTTGATACCACCATAAAATGGTAATTACACCCCTAAATTGATAATTATCACACCCAATTTAACTATAACGCTCTGATCATAGTCAGACCAACATTGCTACGACCCGTATTCGCACCGACAC	-3.42 ± 0.33	-0.273 ± 0.24
ACATTTGTTGATACCACCATAAAATGGTAATTACACCCCTACATTGATAATTATCACACCCAATTTAACTATAACGCTCTGATCATAGTCAGACCAACATTGCTACGACCCGTATTCGCACCGACAC	-4.23 ± 0.31	-0.988 ± 0.042
ACATTTGTTGATACCACCATAAAATGGTAATTCCACCCATAAATTGATAATTATCACACCCAATTTAACTATAACGCTCTGATCATAGTCAGACCAACATTGCTACGACCCGTATTCGCACCGACAC	-1.38 ± 0.23	2.06 ± 0.076
ACATTTGTTGATACCACCATAAAATGGTAATTCCACCCATACATTGATAATTATCACACCCAATTTAACTATAACGCTCTGATCATAGTCAGACCAACATTGCTACGACCCGTATTCGCACCGACAC	-3.16 ± 0.49	0.278 ± 0.23
ACATTTGTTGATACCACCATAAAATGGTAATTCCACCCCTAAATTGATAATTATCACACCCAATTTAACTATAACGCTCTGATCATAGTCAGACCAACATTGCTACGACCCGTATTCGCACCGACAC	-3.4 ± 0.27	-0.252 ± 0.21
ACATTTGTTGATACCACCATAAAATGGTAATTCCACCCCTACATTGATAATTATCACACCCAATTTAACTATAACGCTCTGATCATAGTCAGACCAACATTGCTACGACCCGTATTCGCACCGACAC	-4.47 ± 0.45	-0.833 ± 0.022
ACATTTGTTGATACCACCATCAAATGATAATTACACCCATAAATTGATAATTATCACACCCAATTTAACTATAACGCTCTGATCATAGTCAGACCAACATTGCTACGACCCGTATTCGCACCGACAC	-1.91 ± 0.26	1.14 ± 0.18
ACATTTGTTGATACCACCATCAAATGATAATTACACCCATACATTGATAATTATCACACCCAATTTAACTATAACGCTCTGATCATAGTCAGACCAACATTGCTACGACCCGTATTCGCACCGACAC	-3.87 ± 0.1	-0.805 ± 0.15
ACATTTGTTGATACCACCATCAAATGATAATTACACCCCTAAATTGATAATTATCACACCCAATTTAACTATAACGCTCTGATCATAGTCAGACCAACATTGCTACGACCCGTATTCGCACCGACAC	-4.72 ± 0.056	-1.78 ± 0.038
ACATTTGTTGATACCACCATCAAATGATAATTACACCCCTACATTGATAATTATCACACCCAATTTAACTATAACGCTCTGATCATAGTCAGACCAACATTGCTACGACCCGTATTCGCACCGACAC	-5.58 ± 0.31	-2.42 ± 0.59
ACATTTGTTGATACCACCATCAAATGATAATTCCACCCATAAATTGATAATTATCACACCCAATTTAACTATAACGCTCTGATCATAGTCAGACCAACATTGCTACGACCCGTATTCGCACCGACAC	-2.05 ± 0.11	1.36 ± 0.27
ACATTTGTTGATACCACCATCAAATGATAATTCCACCCATACATTGATAATTATCACACCCAATTTAACTATAACGCTCTGATCATAGTCAGACCAACATTGCTACGACCCGTATTCGCACCGACAC	-4.883 ± 0.0066	-1.66 ± 0.086
ACATTTGTTGATACCACCATCAAATGATAATTCCACCCCTAAATTGATAATTATCACACCCAATTTAACTATAACGCTCTGATCATAGTCAGACCAACATTGCTACGACCCGTATTCGCACCGACAC	-5.24 ± 0.34	-2.31 ± 0.042
